Consider three molecules from paper PMC9233695, “Structural mechanism of protein recognition by the FW domain of autophagy receptor Nbr1” (Nature Communications, 2022).

The Kd is a measure of binding affinity in units of concentration. The low end stands for tighter binding, the high end for weaker binding. The stoichiometry N is the number of molecules, sites or subunits per partner or assembly.

Data set [1] addresses GST-CtNbr1(635–775) (Chaetomium thermophilum). Kind of data set: SPR; Biacore T200, 25 °C; GST-FW domain captured by anti-GST antibody on a CM5 chip to about 200 RU; CtAms1 protein flowed, 50 to 1.56 nM; 10 mM HEPES pH 7.4, 150 mM NaCl, 0.05% Tween 20; 1:1 binding model. Background: Surface plasmon resonance follows binding to a sensor surface in real time, without labels.
In data set [2] the target is GST-hNBR1(358-498) (human) (UniProt Q14596). The experiment in a line: SPR; Biacore T200, 25 °C; GST-FW domain captured by anti-GST antibody on a CM5 chip to about 700 RU; synthetic peptide flowed, 100 to 3.13 μM; 10 mM HEPES pH 7.4, 150 mM NaCl, 0.05% Tween 20; steady-state model.
GST-hNBR1(358-498) (human), sequence (Q14596 358-498): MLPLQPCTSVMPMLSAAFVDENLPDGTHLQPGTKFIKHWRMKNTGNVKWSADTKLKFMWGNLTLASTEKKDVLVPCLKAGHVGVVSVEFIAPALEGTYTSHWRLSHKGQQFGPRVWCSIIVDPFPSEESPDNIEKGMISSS
Data set [3] concerns the target GST-CtNbr1(635–775) (Chaetomium thermophilum). The data set is described as above.
Data set [4] deals with the molecule itself. The experiment in a line: cryo-EM structure; CtAms1-CtNbr1 FW-MBP fusion protein, 2.2 Å, D2 symmetry.

GST-CtNbr1(635–775) (Chaetomium thermophilum), sequence (main, as listed by the source): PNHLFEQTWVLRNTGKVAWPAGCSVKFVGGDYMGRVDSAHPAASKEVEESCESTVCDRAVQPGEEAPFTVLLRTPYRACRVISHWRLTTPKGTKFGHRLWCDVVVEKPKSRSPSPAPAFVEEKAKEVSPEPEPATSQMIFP

The molecule “FLAG2-His6 (FFH)-tagged CtAms1 (natural protein)” yielded a Kd in data set [1] of 0.0034 µM. In other words, the single-digit nanomolar range.

On to CtAms1(2–15) peptide, for which the dissociation constant Kd came to 110 µM in data set [2] and 23 µM in data set [3].

B1: CtAms1 in the CtAms1-CtNbr1 FW-MBP fusion protein (natural protein, Chaetomium thermophilum, UniProt G0SGP6 1-1079, looked up)
chain: MGGETFDVKGPRPNDYPLRAPKPVGQLISHIYKDRIAQFYNGGQYEHQNLRAMMKEDSVSGEPHVQLWVWHAPGQTRPSFEEAVSNQFVKTNVGEWFGPSWTTHWFRVVLTVPEHLQNKRLLEFHWDSNSEGLVWSEDGKPLQGLTGGGERVEWILPDSFRDGKEHTIYIEMACNRMFGNAPGGDSIQPPDPNKYFRLDKAEIVAIDPDARQLWIDIWILQDAAREFPGDSWESHKALQVCNEIIEAFELGNRESLKKCRKIAEQYLGPNVDSPNVYNSGKEPLVYAIGHCHIDSCWLWPFAETKRKVVRSWSSQCDLMDRYPELNFVCSQAQQYKWLKQLYPYAFERVKKKVAEGRFHPIGGSWVEHDTNMPSGESLVRQFLYGQRFYESNFGKRCKTFWLPDTFGYSAQLPQLCRLAGMTRFLTQKLSWNNINRFPHTTFNWVALDGSQVICHMPPSETYTAEAHFGDVKRSMSQHKSLDQDNTSLLVFGKGDGGGGPTWVQIEKLRRCRGISDTVGLLPRVHMGSSVDDFFDRLERKADTFVTWYGELYFELHRGTYTTQAKNKKNNRRAEAKLRDLELLATIASVQDKSYKYPKEEFDAMWENVLLCQFHDCLPGSSIEMAYRESDQMYADVFSTAEKIMKGVSQVLGLEPALNHMSTTNTVALNTLPWPRRELVKISEKEAAVAHGTGPFLKLQKLETTKPLVTLRQVTKGAFVLENSQLRVHVEKGVITSLYDKQANREVIPKGQKANQYVIFDDKPLYWQAWDVEVYHLDTRKELPSGETEVHENTPHRVSVVTRTKVSDKSHIQTIIALNGAVEGEQSWVEVQSKVDWHETMKFLKVEFPVDVRNTEASYETAFGIVRRPTHYNTSWDMAKFEVCAHRWADLSEYGYGVSILNDSKYGFATAGQTMRLSLLRSPKAPDAHADMGTHHIRWAILPHQGSLSHVTIRKAFEFNNPTKLYSSPDAAALVAAPPPVWLTPDSSPAIVLDTVKRGEDDEDVSRGELPARKGQSVILRMYDSLGGLARGTVVTTWPLKKVCKVNLLEDDLEVVPWENGRFTVELRPFEVASYRLVLA
notes: full-length Ams1 of Chaetomium thermophilum; the first methionine is processed (density map); model holds residues 2-1079; also called CtAms1_1; CtAms1_3; source: S. pombe (Pnmt1 promoter), fusion protein purified (GFP-Trap beads, released with 3C protease)
With B1, the “stoichiometry N” value in data set [4] is 4.
